Test [1] has as its target androglobin heme-binding globin domain (circularly permuted globin domain of androglobin) (human). The test is described as follows: SEC; size exclusion analysis in 150 mM NaCl buffer.
The target is the same in test [2]. Description: SEC; size exclusion analysis in a phosphate buffer, without salt. (In general: SEC sorts molecules by how far they enter the pores of the column.)

On to “androglobin heme-binding globin domain (circularly permuted globin domain of androglobin) (domain or fragment)”, for which the stoichiometry N is 4 in test [1] and 2 in test [2].

What is called stoichiometry N is a count of units in the complex or per binding partner.

The record behind these values is article PMC11077535.
